First the molecules themselves.
B7: PVR (receptor, human, UniProt P15151 21-343, looked up)
soluble query ectodomain: WPPPGTGDVVVQAPTQVPGFLGDSVTLPCYLQVPNMEVTHVSQLTWARHGESGSMAVFHQTQGPSYSESKRLEFVAARLGAELRNASLRMFGLRVEDEGNYTCLFVTFPQGSRSVDIWLRVLAKPQNTAEVQKVQLTGEPVPMARCVSTGGRPPAQITWHSDLGGMPNTSQVPGFLSGTVTVTSLWILVPSSQVDGKNVTCKVEHESFEKPQLLTVNLTVYYPPEVSISGYDNNWYLGQNEATLTCDARSNPEPTGYNWSTTMGPLPPFAVAQGAQLLIRPVDKPINTTLICNVTNALGARQAELTVQVKEGPPSEHSGISRN
modifications: biotinylated
notes: extracellular domain; also called poliovirus receptor; monomeric or tetrameric PVR ectodomain

For test [1], the target named is T1, LILRB1 expressed on cells (human, UniProt Q8NHL6 24-650).
T1 construct: whole, on cells; C-terminally tagged in the co-IP; also called LILRB1-FLAG
The test can be described thus: cell surface interaction assay: ECD tetramer on transfected cells (FIG. 5N).

Test [2] deals with T2, LRRC4B expressed on cells (human, UniProt Q9NT99 36-713).
T2 construct: whole, on cells; C-terminally tagged in the co-IP; also called NGL-3; LRRC4B-FLAG
T2 sequence (looked up): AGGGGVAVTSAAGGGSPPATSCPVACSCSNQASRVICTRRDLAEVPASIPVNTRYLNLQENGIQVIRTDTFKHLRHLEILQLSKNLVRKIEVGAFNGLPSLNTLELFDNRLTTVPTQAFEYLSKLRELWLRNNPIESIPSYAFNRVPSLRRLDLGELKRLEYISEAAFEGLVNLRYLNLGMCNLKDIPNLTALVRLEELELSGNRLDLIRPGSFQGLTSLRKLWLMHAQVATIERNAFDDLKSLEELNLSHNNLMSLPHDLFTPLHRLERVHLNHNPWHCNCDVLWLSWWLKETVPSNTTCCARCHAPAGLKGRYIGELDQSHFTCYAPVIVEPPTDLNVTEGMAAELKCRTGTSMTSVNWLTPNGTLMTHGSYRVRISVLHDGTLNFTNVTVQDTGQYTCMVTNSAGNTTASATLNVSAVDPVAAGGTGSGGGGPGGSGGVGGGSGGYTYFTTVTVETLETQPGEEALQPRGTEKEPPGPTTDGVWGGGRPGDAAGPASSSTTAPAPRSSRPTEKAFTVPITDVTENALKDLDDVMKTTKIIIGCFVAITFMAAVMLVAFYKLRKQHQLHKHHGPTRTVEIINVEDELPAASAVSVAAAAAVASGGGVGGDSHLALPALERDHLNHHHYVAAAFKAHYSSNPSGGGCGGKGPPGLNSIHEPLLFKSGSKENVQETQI
Briefly: cell surface interaction assay: streptavidin-tetramerized biotinylated ECD on transfected cells, immunofluorescence.

The target in test [3] is T3, UNC5A (human, UniProt Q6ZN44).
T3 construct: expressed on cells; also called UNC5A expressed on cells
T3 sequence (cell-surface-expressed binding partner, looked up): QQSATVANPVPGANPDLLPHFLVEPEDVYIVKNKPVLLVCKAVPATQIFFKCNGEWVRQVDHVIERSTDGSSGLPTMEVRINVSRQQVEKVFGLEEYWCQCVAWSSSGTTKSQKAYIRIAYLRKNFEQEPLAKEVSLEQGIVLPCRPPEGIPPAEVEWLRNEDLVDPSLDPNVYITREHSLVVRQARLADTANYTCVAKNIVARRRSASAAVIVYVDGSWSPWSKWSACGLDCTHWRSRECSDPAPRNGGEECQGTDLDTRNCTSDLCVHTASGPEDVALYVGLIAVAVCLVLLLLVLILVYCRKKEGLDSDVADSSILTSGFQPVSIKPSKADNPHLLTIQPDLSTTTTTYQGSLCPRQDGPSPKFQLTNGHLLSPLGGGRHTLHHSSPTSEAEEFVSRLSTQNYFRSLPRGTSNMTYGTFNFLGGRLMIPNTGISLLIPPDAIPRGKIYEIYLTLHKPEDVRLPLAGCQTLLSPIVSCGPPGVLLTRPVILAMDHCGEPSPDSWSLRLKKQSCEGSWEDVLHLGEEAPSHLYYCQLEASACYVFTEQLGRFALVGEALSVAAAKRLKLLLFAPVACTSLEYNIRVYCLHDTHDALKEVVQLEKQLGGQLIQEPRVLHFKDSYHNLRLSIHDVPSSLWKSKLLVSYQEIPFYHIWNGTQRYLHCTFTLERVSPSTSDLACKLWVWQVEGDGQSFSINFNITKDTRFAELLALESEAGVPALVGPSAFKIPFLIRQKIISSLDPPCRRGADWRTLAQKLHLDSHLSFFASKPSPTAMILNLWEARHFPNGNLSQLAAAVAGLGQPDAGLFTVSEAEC
Briefly: cell surface interaction assay: query ECD tetramerised with fluorescent streptavidin on transfected cells, immunofluorescence.

Test [4] has as its target T4, PTPRS expressed on cells (human, UniProt Q13332 30-1948).
T4 construct: whole, on cells; also called receptor-type tyrosine-protein phosphatase S
The test can be described thus: cell surface interaction assay: streptavidin-tetramerized biotinylated ECD on transfected cells, immunofluorescence.

Test [5] deals with T5, PTPRD expressed on cells (human, UniProt P23468 21-1912).
T5 construct: whole, on cells; also called receptor-type tyrosine-protein phosphatase delta
The test is described as above.

Test [6] deals with B7. The test can be described thus: cell surface binding of monomeric or streptavidin-tetramerised PVR ectodomain to CD226-expressing cells, normalized fluorescence intensity.
Test [7] has as its target T6, CD96 (human, UniProt P40200).
T6 construct: expressed on cells; also called CD96 expressed on cells
T6 sequence (cell-surface-expressed binding partner, looked up): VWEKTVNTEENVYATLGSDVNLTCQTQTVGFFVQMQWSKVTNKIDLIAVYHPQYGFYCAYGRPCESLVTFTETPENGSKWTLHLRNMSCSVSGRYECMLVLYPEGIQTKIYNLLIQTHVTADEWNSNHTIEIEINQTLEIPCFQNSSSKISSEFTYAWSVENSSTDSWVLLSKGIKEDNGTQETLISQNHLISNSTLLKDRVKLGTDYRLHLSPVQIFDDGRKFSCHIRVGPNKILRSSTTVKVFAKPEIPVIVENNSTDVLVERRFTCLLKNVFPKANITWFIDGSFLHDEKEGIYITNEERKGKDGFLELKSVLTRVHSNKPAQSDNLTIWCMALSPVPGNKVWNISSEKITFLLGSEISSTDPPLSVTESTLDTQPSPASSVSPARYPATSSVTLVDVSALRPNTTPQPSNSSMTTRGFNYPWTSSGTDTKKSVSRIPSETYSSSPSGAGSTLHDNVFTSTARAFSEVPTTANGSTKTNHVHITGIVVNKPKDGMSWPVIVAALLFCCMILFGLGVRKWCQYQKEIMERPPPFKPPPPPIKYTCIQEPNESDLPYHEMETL
The test can be described thus: cell surface binding of monomeric or streptavidin-tetramerised PVR ectodomain to CD96-expressing cells, normalized fluorescence intensity.

The target in test [8] is B7. The test can be described thus: cell surface binding of monomeric or streptavidin-tetramerised PVR ectodomain to TIGIT-expressing cells, normalized fluorescence intensity.

These results are taken from patent publication US20220119490A1 (Genentech, published 2022).

T1 sequence (Q8NHL6 24-650): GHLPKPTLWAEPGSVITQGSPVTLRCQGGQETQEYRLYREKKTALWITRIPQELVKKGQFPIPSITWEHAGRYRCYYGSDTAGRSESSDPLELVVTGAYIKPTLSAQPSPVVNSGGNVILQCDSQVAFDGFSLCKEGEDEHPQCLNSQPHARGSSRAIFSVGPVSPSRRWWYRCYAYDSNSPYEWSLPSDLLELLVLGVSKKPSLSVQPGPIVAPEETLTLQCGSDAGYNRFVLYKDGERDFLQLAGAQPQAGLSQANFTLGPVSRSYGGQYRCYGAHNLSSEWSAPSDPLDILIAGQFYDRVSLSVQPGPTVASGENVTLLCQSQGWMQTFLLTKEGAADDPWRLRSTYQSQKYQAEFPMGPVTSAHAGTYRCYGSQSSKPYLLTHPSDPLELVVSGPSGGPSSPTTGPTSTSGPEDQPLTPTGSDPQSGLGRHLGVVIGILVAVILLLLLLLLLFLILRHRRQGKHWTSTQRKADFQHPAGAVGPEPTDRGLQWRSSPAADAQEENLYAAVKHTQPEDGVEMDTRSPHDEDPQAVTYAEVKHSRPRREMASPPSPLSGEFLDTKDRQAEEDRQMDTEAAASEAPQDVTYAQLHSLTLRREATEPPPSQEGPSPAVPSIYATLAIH
T4 sequence (Q13332 30-1948): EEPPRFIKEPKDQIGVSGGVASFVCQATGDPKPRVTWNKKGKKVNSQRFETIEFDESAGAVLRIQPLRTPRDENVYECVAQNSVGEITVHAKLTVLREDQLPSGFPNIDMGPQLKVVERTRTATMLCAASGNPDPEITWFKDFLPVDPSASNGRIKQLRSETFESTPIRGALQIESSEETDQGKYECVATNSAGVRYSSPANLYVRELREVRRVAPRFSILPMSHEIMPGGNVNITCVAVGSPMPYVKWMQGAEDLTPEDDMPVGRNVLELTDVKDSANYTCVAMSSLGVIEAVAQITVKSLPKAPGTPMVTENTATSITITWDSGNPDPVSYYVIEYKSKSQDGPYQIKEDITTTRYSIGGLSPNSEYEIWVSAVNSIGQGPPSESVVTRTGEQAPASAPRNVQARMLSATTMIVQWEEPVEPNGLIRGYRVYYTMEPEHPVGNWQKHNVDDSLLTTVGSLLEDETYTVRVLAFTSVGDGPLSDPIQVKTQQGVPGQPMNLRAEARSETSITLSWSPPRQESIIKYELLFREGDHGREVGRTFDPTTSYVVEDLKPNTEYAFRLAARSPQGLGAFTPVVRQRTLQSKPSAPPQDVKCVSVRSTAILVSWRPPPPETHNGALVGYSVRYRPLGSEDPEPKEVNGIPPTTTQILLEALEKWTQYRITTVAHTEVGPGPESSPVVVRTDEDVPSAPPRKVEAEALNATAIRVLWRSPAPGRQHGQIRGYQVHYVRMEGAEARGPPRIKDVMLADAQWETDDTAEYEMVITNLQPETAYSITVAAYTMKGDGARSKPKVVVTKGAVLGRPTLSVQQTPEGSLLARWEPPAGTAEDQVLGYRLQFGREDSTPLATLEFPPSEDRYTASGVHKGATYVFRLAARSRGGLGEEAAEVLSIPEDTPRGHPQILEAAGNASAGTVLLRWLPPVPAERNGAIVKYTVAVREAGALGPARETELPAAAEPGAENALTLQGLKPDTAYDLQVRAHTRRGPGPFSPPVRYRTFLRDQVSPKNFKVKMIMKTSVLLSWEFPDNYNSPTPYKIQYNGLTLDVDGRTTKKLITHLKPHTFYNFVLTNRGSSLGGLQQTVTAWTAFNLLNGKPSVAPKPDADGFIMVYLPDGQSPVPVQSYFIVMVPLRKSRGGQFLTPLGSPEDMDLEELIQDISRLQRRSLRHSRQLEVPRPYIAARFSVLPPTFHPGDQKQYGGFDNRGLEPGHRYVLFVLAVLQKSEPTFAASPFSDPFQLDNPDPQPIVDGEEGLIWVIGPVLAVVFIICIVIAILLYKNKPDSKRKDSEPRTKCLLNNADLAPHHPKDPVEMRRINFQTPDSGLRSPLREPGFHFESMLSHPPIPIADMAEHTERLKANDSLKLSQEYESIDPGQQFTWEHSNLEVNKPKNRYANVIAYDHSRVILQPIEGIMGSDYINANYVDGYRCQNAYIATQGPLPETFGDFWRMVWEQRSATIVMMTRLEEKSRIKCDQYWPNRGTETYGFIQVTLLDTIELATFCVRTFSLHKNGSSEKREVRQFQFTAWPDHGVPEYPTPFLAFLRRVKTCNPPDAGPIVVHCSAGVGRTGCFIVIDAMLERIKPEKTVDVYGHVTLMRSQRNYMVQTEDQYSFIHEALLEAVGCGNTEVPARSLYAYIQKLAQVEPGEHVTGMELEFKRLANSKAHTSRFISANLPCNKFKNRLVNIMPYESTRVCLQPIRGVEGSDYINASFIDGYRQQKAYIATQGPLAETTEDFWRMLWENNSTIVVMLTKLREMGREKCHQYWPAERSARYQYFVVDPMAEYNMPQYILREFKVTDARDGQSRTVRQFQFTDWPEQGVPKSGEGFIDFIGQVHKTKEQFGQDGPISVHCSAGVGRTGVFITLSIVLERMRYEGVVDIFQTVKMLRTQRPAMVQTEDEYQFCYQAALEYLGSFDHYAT
T5 sequence (P23468 21-1912): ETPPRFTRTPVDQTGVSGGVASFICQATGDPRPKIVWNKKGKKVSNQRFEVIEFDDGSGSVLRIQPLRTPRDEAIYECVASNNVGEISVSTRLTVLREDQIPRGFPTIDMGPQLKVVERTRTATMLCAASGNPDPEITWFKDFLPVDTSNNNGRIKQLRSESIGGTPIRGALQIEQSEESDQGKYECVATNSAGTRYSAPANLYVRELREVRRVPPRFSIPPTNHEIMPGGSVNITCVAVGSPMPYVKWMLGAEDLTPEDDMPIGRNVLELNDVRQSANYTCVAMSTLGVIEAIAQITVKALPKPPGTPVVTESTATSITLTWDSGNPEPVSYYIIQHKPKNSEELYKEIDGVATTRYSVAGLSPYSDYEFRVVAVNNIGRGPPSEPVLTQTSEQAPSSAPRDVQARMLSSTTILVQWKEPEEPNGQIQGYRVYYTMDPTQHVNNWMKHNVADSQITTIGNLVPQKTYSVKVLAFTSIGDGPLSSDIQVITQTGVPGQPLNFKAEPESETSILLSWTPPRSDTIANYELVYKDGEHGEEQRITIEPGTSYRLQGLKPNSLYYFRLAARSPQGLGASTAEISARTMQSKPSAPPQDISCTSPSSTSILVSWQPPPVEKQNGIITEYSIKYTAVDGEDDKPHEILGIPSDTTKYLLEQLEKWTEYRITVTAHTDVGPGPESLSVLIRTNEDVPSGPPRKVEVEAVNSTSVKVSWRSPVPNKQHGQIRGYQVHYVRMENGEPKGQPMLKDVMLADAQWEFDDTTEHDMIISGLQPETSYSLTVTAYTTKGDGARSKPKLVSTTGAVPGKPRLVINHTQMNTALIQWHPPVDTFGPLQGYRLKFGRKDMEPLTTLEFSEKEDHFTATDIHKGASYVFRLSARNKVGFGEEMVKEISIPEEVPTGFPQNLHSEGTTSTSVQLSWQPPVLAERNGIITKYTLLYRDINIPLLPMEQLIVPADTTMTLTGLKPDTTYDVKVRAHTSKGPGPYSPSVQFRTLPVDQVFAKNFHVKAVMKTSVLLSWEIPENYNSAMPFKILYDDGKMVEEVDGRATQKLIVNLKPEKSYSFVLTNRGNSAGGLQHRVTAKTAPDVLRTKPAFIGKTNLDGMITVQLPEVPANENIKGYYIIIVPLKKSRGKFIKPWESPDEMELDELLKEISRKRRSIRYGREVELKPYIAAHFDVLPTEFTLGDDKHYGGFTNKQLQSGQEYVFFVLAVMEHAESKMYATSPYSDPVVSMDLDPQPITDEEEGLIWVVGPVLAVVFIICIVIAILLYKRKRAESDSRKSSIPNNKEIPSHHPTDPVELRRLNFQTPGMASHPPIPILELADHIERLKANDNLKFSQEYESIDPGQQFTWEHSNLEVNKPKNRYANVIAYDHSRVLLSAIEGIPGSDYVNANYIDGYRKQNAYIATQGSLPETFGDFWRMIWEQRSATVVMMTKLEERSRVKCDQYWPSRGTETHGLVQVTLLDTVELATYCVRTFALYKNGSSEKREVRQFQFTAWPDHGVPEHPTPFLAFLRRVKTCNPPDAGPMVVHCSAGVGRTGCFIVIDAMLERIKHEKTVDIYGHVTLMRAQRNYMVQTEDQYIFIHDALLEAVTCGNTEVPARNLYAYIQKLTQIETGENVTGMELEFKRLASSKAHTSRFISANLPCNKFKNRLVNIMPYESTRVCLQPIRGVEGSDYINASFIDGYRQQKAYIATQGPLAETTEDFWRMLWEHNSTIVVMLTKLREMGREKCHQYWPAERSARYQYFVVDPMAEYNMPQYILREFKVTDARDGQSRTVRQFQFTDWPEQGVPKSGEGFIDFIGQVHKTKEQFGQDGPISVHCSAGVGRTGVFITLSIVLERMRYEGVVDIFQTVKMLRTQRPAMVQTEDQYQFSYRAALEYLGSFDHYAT

B1: EDAR extracellular domain (receptor, human, UniProt Q9UNE0 27-187, looked up)
chain: EYSNCGENEYYNQTTGLCQECPPCGPGEEPYLSCGYGTKDEDYGCVPCPAEKFSKGGYQICRRHKDCEGFFRATVLTPGDMENDAECGPCLPGYYMLENRPRNIYGMVCYSCLLAPPNTKECVGATSGASANFPGTSGSSTLSPFQHAHKELSGQGHLATA
notes: extracellular domain; Soluble query, streptavidin tetramer
As to B1, the binding result in test [1] was “binds”.

B2: BTN3A3 extracellular domain (receptor)
chain: not shown
notes: as for B1
B2: in test [2], the binding result was “binds”.

B3: FLRT2 (receptor, human, UniProt O43155 36-541, looked up)
soluble query ectodomain: CPSVCRCDRNFVYCNERSLTSVPLGIPEGVTVLYLHNNQINNAGFPAELHNVQSVHTVYLYGNQLDEFPMNLPKNVRVLHLQENNIQTISRAALAQLLKLEELHLDDNSISTVGVEDGAFREAISLKLLFLSKNHLSSVPVGLPVDLQELRVDENRIAVISDMAFQNLTSLERLIVDGNLLTNKGIAEGTFSHLTKLKEFSIVRNSLSHPPPDLPGTHLIRLYLQDNQINHIPLTAFSNLRKLERLDISNNQLRMLTQGVFDNLSNLKQLTARNNPWFCDCSIKWVTEWLKYIPSSLNVRGFMCQGPEQVRGMAVRELNMNLLSCPTTTPGLPLFTPAPSTASPTTQPPTLSIPNPSRSYTPPTPTTSKLPTIPDWDGRERVTPPISERIQLSIHFVNDTSIQVSWLSLFTVMAYKLTWVKMGHSLVGGIVQERIVSGEKQHLSLVNLEPRSTYRICLVPLDAFNYRAVEDTICSEATTHASYLNNGSNTASSHEQTTSHSMGSPF
modifications: biotinylated
notes: extracellular domain; also called soluble query
With B3, the binding result in test [3] is “binds”.

B4: SLITRK3 extracellular domain (receptor, human, UniProt O94933 29-654, looked up)
chain: TPIPLIEDSEEIDEPCFDPCYCEVKESLFHIHCDSKGFTNISQITEFWSRPFKLYLQRNSMRKLYTNSFLHLNNAVSINLGNNALQDIQTGAFNGLKILKRLYLHENKLDVFRNDTFLGLESLEYLQADYNVIKRIESGAFRNLSKLRVLILNDNLIPMLPTNLFKAVSLTHLDLRGNRLKVLFYRGMLDHIGRSLMELQLEENPWNCTCEIVQLKSWLERIPYTALVGDITCETPFHFHGKDLREIRKTELCPLLSDSEVEASLGIPHSSSSKENAWPTKPSSMLSSVHFTASSVEYKSSNKQPKPTKQPRTPRPPSTSQALYPGPNQPPIAPYQTRPPIPIICPTGCTCNLHINDLGLTVNCKERGFNNISELLPRPLNAKKLYLSSNLIQKIYRSDFWNFSSLDLLHLGNNRISYVQDGAFINLPNLKSLFLNGNDIEKLTPGMFRGLQSLHYLYFEFNVIREIQPAAFSLMPNLKLLFLNNNLLRTLPTDAFAGTSLARLNLRKNYFLYLPVAGVLEHLNAIVQIDLNENPWDCTCDLVPFKQWIETISSVSVVGDVLCRSPENLTHRDVRTIELEVLCPEMLHVAPAGESPAQPGDSHLIGAPTSASPYEFSPPGGPVPLS
notes: extracellular domain; Streptavidin tetramer in cell assay; ECD-Fc prey in the variant screen
Turning to B4, the binding result in test [4] and in test [5] was “binds” in each case.

B5: CD226 (receptor, human, UniProt Q15762 19-336, looked up)
cell-surface-expressed binding partner: EEVLWHTSVPFAENMSLECVYPSMGILTQVEWFKIGTQQDSIAIFSPTHGMVIRKPYAERVYFLNSTMASNNMTLFFRNASEDDVGYYSCSLYTYPQGTWQKVIQVVQSDSFEAAVPSNSHIVSEPGKNVTLTCQPQMTWPVQAVRWEKIQPRQIDLLTYCNLVHGRNFTSKFPRQIVSNCSHGRWSVIVIPDVTVSDSGLYRCYLQASAGENETFVMRLTVAEGKTDNQYTLFVAGGTVLLLLFVISITTIIVIFLNRRRRRERRDLFTESWDTQKAPNNYRSPISTSQPTNQSMDDTREDIYVNYPTFSRRPKTRV
notes: expressed on cells; also called CD226 expressed on cells
For B5, the binding result in test [6] is listed as “binds”.

B6: LILRA5 extracellular domain (receptor)
chain: not shown
notes: as for B1
For the molecule B6, the binding result in test [1] is on record as “binds”.
As for B7, in test [7], the binding result is listed as “binds”.

B8: TIGIT (receptor, human, UniProt Q495A1 22-244, looked up)
cell-surface-expressed binding partner: MMTGTIETTGNISAEKGGSIILQCHLSSTTAQVTQVNWEQQDQLLAICNADLGWHISPSFKDRVAPGPGLGLTLQSLTVNDTGEYFCIYHTYPDGTYTGRIFLEVLESSVAEHGARFQIPLLGAMAATLVVICTAVIVVVALTRKKKALRIHSVEGDLRRKSAGQEEWSPSAPSPPGSCVQAEAAPAGLCGEQRGEDCAELHDYFNVLSYRSLGNCSFFTETG
notes: expressed on cells; also called TIGIT expressed on cells
On to B8, for which the binding result in test [8] was “binds”.

B9: BTN3A1 extracellular domain (receptor)
chain: not shown
notes: as for B1
For B9, the binding result in test [2] is reported as “binds”.
